Data as given in US20260167679A1, “FUSION PROTEIN TARGETING MITOCHONDRIA, METHOD OF MAKING AND USE THEREOF” (UNIVERSITY OF ROCHESTER, priority 2020, published 2026).

What was measured:
[1] = test system: isolated C. elegans mitochondria; assay: ATP measurement in isolated mitochondria (luciferase); assay type: biochemical, Caenorhabditis elegans; conditions: isolated mitochondria supplied with ADP, mtON activation
Protocol: Relative ATP levels were determined in isolated mitochondria given a known amount of ADP to test the ability of mtON to drive ATP synthesis. A luciferase bioluminescence kit was used according to the manufacturer's instructions (Invitrogen™ Molecular Probes™, A22066). Mitochondria were stirred in MRB at 0.5 mg/ml with 1 mg/ml fat-free BSA, 600 μM ADP, and 2 μM rotenone. 5 mM succinate was used for a control for maximum ATP level, and 0.001 mg/ml oligomycin A was used as a zero ATP synthesis control. Mitochondrial suspensions were immediately frozen with liquid nitrogen after 1, 5, or 10 min light exposure (XCite LED, 0.02 mW/mm^2). Samples were then thawed on ice, centrifuged at 14,800 g, and supernatant was collected and run at 1:100 dilution in MRB in the luminescence assay. Oligomycin A control values were subtracted from experimental reads, and data were then normalized to luminescent signal from succinate control samples (complete ADP conversion confirmed by monitoring 02 consumption rate transitions).

C. elegans [2] = assay: ETC inhibitor assays, survival of animals; assay type: in vivo, Caenorhabditis elegans
Protocol: Experiments were performed on at least three separate days, using 15-100 young adult animals per plate. Seeded plates were supplemented with rotenone (50 μM final concentration), antimycin A (50 μM final concentration), or oligomycin A (31 μM final concentration) 24 h before animals were transferred onto them. For azide toxicity, animals were placed in M9 buffer with 250 mM azide. Control plates were kept in the dark, and experimental plates were exposed to 1 Hz light (Quantum LED, 0.02 mW/mm^2) for the duration of the experiment. For all toxins, animals that were moving or those that moved in response to a light touch to the head were scored as alive. For rotenone, surviving animals were scored after 5 h. For antimycin A, animals were scored 16 h after exposure. For azide, animals were exposed for 1 h in M9 and allowed to recover for 1 h on a seeded culture plate and then survival was scored. Azide experimental plates were exposed to light (XCite LED, 0.19 mW/mm^2) for the duration of azide treatment and recovery. […]. For oligomycin A, animals were scored 18 h after exposure.
Experiments were carried out using a hypoxic chamber (Coy Laboratory Products, 5%/95% H2/N2 gas, palladium catalyst) at 26° C. with 50-100 animals per plate. O2 was <0.01%. Hypoxic preconditioning (PC) duration was 4 h, and control animals were incubated at 26° C. in room air for the same time. 1 Hz illumination (Quantum LED, 0.02 mW/mm^2) was carried out during PC period or during the hypoxic period. Hypoxic exposure was for 18.5, 21 h after PC. Twenty-four hours after hypoxia exposure, animals that were moving or those that moved in response to a light touch to the head were scored as alive. Data from days where PC was at least 15% effective for both +ATR and −ATR were used. Animals supplemented with ATR were allowed to lay eggs onto plates with no ATR that were subsequently used for HR experiments to minimize confounding effects of ATR. ATR from the parent animal was sufficient to provide active mtON in progeny as tested by the azide toxin assay described above. […] FCCP dissolved in ethanol was deposited onto seeded NGM plates.

C. elegans [3] = assay: In vivo mitochondrial membrane potential (TMRE) in aged animals; set-up: species or system Caenorhabditis elegans
Protocol: FIG. 8 is a composite of drawings showing that mtON restores lost membrane potential and increases lifespan. […] One-way ANOVA with Tukey's post hoc test for multiple comparisons, *p<0.05. Data are means±standard error of the mean. Panel B) mtON activation throughout adult life extends lifespan (n=?). […] Log rank Mantel Cox test for survival comparison, p=0.018.
Panel A) Representative images of day 4 adult animals exposed to 100 nM TMRE for 24 hours. Pharynx region of interest (ROI) is outlined in dotted white lines. All animals were expressing mtON through single-copy CRISPR/Cas9 insertion to the genome. Panel B) Quantification of TMRE fluorescence in mtON-expressing day 4 adult animals exposed to 100 nM TMRE for 24 hours. Whole-body fluorescence as well as pharynx ROIs were quantified. Control represents animals exposed to light but without ATR supplementation. Statistics are student's two tailed unpaired t tests. * p<0.001.
Scale bar, 250 μm. c, Quantification of relative TMRE fluorescence. One-way analysis of variance (ANOVA) with Tukey's multiple comparisons test, day 1 versus day 4, P=0.0001, day 1 versus day 10, P=0.0002, n=44, 18 and 30. Data are median±quartiles (dotted lines). d, Pharynx TMRE fluorescence normalized to mitochondrial mass in day 4 worms. […]

CD8+ T cells = assay: CD8+ T cell migration on ICAM-1+CXCL12; assay type: cell-based, mouse
Protocol: The velocity (A), displacement (B), track length (C), meandering index (D), and percent migrating cells (E) of Mock (or GFP) and mtOn expressing Day 4 CD8+ T cells migrating on ICAM-1+CXCL12. The percentage of migrating cells was calculated as the number of cells migrating 5-20 μm/min divided by the total number of cells in the field of view during the 20-minute movie. All movies received 500 nm illumination and were analyzed with Volocity software. All data shown as mean±SEM and analyzed by a two-tailed unpaired t-test with Welch's correction (A-D: includes four independent experiments, Mock: 271 cells, mtOn: 312 cells; E: n=4 movies on the same day). ns, not significant.
After confirming mtON is expressed correctly, there followed additional functional experiments, specifically looking at cell migration in CD8+ T cells expressing mtON (PA-OxPhos). The migration conditions were the same as in previously described experiments, except we now used the Texas Red filter (˜500 nm) on an epifluorescent microscope to activate mtON while CD8+ T cells are migrating on ICAM-1+CXCL12. CD8+ T cells were sorted based on GFP expression and the mock negative control cells were GFP negative. Both mock and mtON expressing CD8+ T cells were treated identically.

B1: mtON: fusion of the 187 N-terminal amino acids of mouse IMMT1 to the light-activated proton pump (Mac) from Leptosphaeria maculans (protein)
chain: MLRACQLSGVTVAAQSCLCGKFVLRPLRPCRRYSTSSSSGLTAGKIAGAGLLFVGGGIGGTILYAKWDSHFRESVEKTIPYSDKLFGMVLGSAPYTVPLPKKPVQSGPLKISSVSEVMKDSKLPVAQSQKTKGDTPASAASTGAAQIISAAGDTLSVPAPAVQHEDTIKTECPNTNEGKSTSETTEEPAGLIVDQFEEVLMKTSQLFPLPTATQSAQPTHVAPVPTVLPDTPIYETVGDSGSKTLWVVFVLMLIASAAFTALSWKIPVNRRLYHVITTIITLTAALSYFAMATGHGVALNKIVIRTQHDHVPDTYETVYRQVYYARYIDWAITTPLLLLDLGLLAGMSGAHIFMAIVADLIMVLTGLFAAFGSEGTPQKWGWYTIACIAYIFVVWHLVLNGGANARVKGEKLRSFFVAIGAYTLILWTAYPIVWGLADGARKIGVDGEIIAYAVLDVLAKGVFGAWLLVTHANLRESDVELNGFWANGLNREGAIRIGEDDGAR
modifications: Synthetic Complete mtON fusion protein sequence
ATP levels [1]: increased ATP levels
survival (C. elegans [2]; 31 μM oligomycin A, scored 18 hours later): No significant differences
survival (C. elegans [2]; 50 μM rotenone for 5 hours, +ATR +light): greater than the ATR alone effect
survival (C. elegans [2]; azide toxin assay, progeny of ATR-supplemented parents, +ATR +light): 66.8%
survival of animals exposed to ETC toxins (C. elegans [2]; mtON active vs controls): survived more
whole-animal measures of PMF (C. elegans [3]; mtON activation for 4 days into adulthood vs age-matched controls): significantly increased
age-related decline of Δψm (C. elegans [3]; mtON activation, two different genetic backgrounds): reversed that decline
overall percentage of migrating CD8+ T cells (CD8+ T cells; vs cells expressing GFP): large increase
cell displacement (CD8+ T cells; ~500 nm illumination, vs mock): increase
cell velocity (CD8+ T cells; ~500 nm illumination, vs mock): increase
meandering index (CD8+ T cells; ~500 nm illumination, vs mock): increase
